Measured values taken from paper PMC5675522 (Angiogenesis, 2017).

Columns and labels:
[1] = target: T1, recombinant human SFRP2 (secreted frizzled-related protein 2) with C-terminal hexahistidine tag (human, UniProt Q96HF1 25-295); assay: ELISA
T1 sequence (looked up): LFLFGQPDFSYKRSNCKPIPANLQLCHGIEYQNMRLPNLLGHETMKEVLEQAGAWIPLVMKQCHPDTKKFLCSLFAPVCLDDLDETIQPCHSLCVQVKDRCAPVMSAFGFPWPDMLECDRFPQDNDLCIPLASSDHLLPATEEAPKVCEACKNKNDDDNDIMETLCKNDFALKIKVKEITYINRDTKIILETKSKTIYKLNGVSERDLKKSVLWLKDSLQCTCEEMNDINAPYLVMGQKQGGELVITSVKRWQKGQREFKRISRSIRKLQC

[2] = target: T2, recombinant human Wnt5a (human, UniProt P41221 62-380); assay: ELISA
T2 sequence (looked up): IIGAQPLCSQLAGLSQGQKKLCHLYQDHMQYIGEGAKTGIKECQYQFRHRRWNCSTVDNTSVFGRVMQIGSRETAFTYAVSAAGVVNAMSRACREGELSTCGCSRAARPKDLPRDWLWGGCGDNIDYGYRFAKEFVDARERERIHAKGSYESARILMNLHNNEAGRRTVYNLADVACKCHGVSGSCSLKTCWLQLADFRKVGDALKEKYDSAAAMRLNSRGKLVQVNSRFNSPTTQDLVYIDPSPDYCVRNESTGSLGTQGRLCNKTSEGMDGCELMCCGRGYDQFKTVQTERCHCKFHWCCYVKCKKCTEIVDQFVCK

- EC50 [1]: 205 nM
- Kd [1]: 103 nM
- EC50 [2]: 216 nM
- Kd [2]: 108 nM
B1: Frizzled-5 Fc Fusion protein (Fc fusion, human, UniProt Q13467 27-238, looked up)
chain: ASKAPVCQEITVPMCRGIGYNLTHMPNQFNHDTQDEAGLEVHQFWPLVEIQCSPDLRFFLCSMYTPICLPDYHKPLPPCRSVCERAKAGCSPLMRQYGFAWPERMSCDRLPVLGRDAEVLCMDYNRSEATTAPPRPFPAKPTLPGPPGAPASGGECPAGGPFVCKCREPFVPILKESHPLYNKVRTGQVPNCAVPCYQPSFSADERTFATFW
